# Measurements reported in paper PMC6829326 (International Journal of Molecular Sciences, 2019).
# Numbering of substitutions follows the chain as printed.
# B1: C-8-2 scFv displayed on phage (scFv, V domains shown)
# VH: EVQLVQSGAEVKKPGSSVKVSCKASGGTESSEAISWVRQAPGQGLEWMGGIIPFFGTANYAQKFQGRVTITADESTSTAYMELSSLRSEDTAVYYCARDGRKDYYGSGSYLHYYGMDVWGQGTTVTVSS
# VL: ELVMTQSPLSLPVTPGEPASISCRSSQSLLHSNGYNYLDWYLQRPGQSPQLLIYLGSNRASGVPDRFSGSGSGTDFTLKIGRVEAEDVGIYYCMQALQTPLTFGGGTKVEIK
# notes: also called C-8-2 clone
# B2: C-8-2-4B scFv displayed on phage (scFv, V domains shown)
# VH: B1 VH with G26D, T28K, S30K, S31R, G56D, T57K
# VL: B1 VL
# notes: also called clone C-8-2-4B
# B3: C-8-2-4B-10D scFv displayed on phage (scFv, V domains shown)
# VH: B1 VH with G26D, T28K, S30K, S31R, G56D, T57K
# VL: B1 VL with L30V, L97V
# Biological target: T1, recombinant MERS-CoV S RBD protein (MERS-CoV, strain ; EMC/2012 …, UniProt K0BRG7)
# T1 construct: source: bought: Sino Biological Inc
# Test: ELISA
# Conditions: one partner purified
row,Binder,binding result
1,B1,binds
2,B2,binds
3,B3,binds
